pKd: −log10 of the molar value. Several values for one entry are separate records, joined by “and”; a condition that tells them apart may be missing. Identical values can stand only once.
Columns and labels:
[1] = target: human OX40 (TNFRSF4, CD134) on cells (human) (UniProt P43489); experiment: cell-based or functional assay
[2] = target: Human OX40 (Acro Biosystems, catalog NO: OXO-H5224) protein (human) (UniProt P43489); experiment: SPR Biacore 8K+, single cycle kinetics, antibody captured by anti-human Fc, OX40 analyte, pH 7.4, 25 °C
[3] = target: human OX40 (TNFRSF4, CD134) on cells (human) (UniProt P43489); experiment: flow cytometry on Jurkat-NFκB (OX40) cells, detection with anti-human IgG Fc-AF647

human OX40 (TNFRSF4, CD134) on cells (human), sequence (P43489 29-277 limits assumed): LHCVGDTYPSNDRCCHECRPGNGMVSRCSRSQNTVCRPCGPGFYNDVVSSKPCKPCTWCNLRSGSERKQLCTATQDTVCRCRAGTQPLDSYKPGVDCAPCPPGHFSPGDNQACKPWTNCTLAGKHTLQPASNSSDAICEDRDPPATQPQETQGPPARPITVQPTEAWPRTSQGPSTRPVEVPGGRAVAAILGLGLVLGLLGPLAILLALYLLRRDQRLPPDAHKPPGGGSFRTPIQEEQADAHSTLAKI
Human OX40 (Acro Biosystems, catalog NO: OXO-H5224) protein (human), sequence (P43489 29-216 limits assumed): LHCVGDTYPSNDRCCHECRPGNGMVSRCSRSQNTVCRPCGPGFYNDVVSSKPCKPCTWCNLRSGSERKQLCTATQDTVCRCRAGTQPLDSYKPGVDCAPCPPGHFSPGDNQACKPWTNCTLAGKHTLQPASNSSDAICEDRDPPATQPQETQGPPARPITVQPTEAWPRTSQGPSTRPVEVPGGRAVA

With AMG451 (rocatinlimab) (antibody) as the substance, how does the ADCC EC50, activated T cells [1] read?
The ADCC EC50, activated T cells was 0.008 nM.

What about the ADCC EC50, in vitro differentiated Tregs [1] of the same substance?
The ADCC EC50, in vitro differentiated Tregs was 0.005 nM.

What about the ADCC EC50, regulatory T cells (LDH release) [1] of the same substance?
The ADCC EC50, regulatory T cells (LDH release) was 0.05 nM.

And the EC50, inhibition of IL-2 release [1]?
Its EC50, inhibition of IL-2 release is 5.87 nM.

And the EC50, inhibition of IL-4 release [1]?
The EC50, inhibition of IL-4 release was 1.77 nM.

And the EC50, inhibition of IL-5 release [1]?
Its EC50, inhibition of IL-5 release is 18.6 nM.

And the EC50, inhibition of IL-8 release [1]?
Its EC50, inhibition of IL-8 release is 4.05 nM.

What about the EC50, inhibition of IL-10 release [1] of the same substance?
Its EC50, inhibition of IL-10 release is 20.3 nM.

What about the EC50, inhibition of IL-13 release [1] of the same substance?
Its EC50, inhibition of IL-13 release is 4 nM.

And the EC50, inhibition of IL-17a release [1]?
Its EC50, inhibition of IL-17a release is 11.7 nM.

What about the EC50, inhibition of IL-21 release [1] of the same substance?
The EC50, inhibition of IL-21 release was 2.75 nM.

What about the EC50, inhibition of IL-22 release [1] of the same substance?
The EC50, inhibition of IL-22 release was 10.4 nM.

And the EC50, inhibition of IL-31 release [1]?
Its EC50, inhibition of IL-31 release is 1.84 nM.

And the EC50, inhibition of T cell proliferation [1]?
The EC50, inhibition of T cell proliferation was 0.15 nM and 0.019 µg/ml.

And the EC50, inhibition of TNF-α release [1]?
The EC50, inhibition of TNF-α release was 3.9 nM.

And the Maximum killing (%), ADCC, activated T cells [1]?
The Maximum killing (%), ADCC, activated T cells was 60.3%.

And the Maximum killing (%), ADCC, regulatory T cells [1]?
The Maximum killing (%), ADCC, regulatory T cells was 85.8%.

What about the responders (Resp) of donors tested, coated T cell agonism assay (responders of 9 donors) [1] of the same substance?
Its responders (Resp) of donors tested, coated T cell agonism assay (responders of 9 donors) is 7.

And the pKd [2]?
The pKd was 8.52.

“MEDI0562 (humanized 9B12, tavolixizumab) (antibody)” was tested. Which average proliferation index (Av), coated T cell agonism assay [1] did it give?
Its average proliferation index (Av), coated T cell agonism assay is 3.41.

What about the luminescence, Jurkat-NFκB-OX40 agonism assay [1] of the same substance?
Its luminescence, Jurkat-NFκB-OX40 agonism assay is > 2 fold.

What about the responders (Resp) of donors tested, coated T cell agonism assay (responders of 11 donors) [1] of the same substance?
The responders (Resp) of donors tested, coated T cell agonism assay (responders of 11 donors) was 9.

And the EC50 (read off the curve) [3]?
The EC50 (read off the curve) was 0.1 µg/mL.

How did the Maximum killing (%), ADCC, activated T cells [1] turn out when IgG1 control (antibody) was run?
The Maximum killing (%), ADCC, activated T cells was 2.27%.

And the Maximum killing (%), ADCC, regulatory T cells [1]?
The Maximum killing (%), ADCC, regulatory T cells was -0.83%.

And the average proliferation index (Av), coated T cell agonism assay [1]?
Its average proliferation index (Av), coated T cell agonism assay is 1.16.

What about the responders (Resp) of donors tested, coated T cell agonism assay (responders of 15 donors) [1] of the same substance?
Its responders (Resp) of donors tested, coated T cell agonism assay (responders of 15 donors) is 0.

How did the luminescence, Jurkat-NFκB-OX40 agonism assay [1] turn out when IMG-007 (antibody) was run?
Its luminescence, Jurkat-NFκB-OX40 agonism assay is 3 fold.
